In article PMC4355285:
Read-outs that look alike come from different tables or passages of the source.

How the values were obtained:
[1] = target: human CCL18 (human) (UniProt P55774); assay: SAXS
[2] = target: human CCL18 (human) (UniProt P55774); assay: SAXS; remark: listed apart in the source

percent of the population as dimer [1]: 28%
percent of the population as hexamer [1]: 24%
percent of the population as monomer [1]: 48%
percent of the population as dimer [2]: 32%
percent of the population as monomer [2]: 65%
percent of the population as tetramer [2]: 3%
Substance: human CCL18 (from UniProt P55774 21-89) (natural protein)
